These results are taken from patent publication US20130165389A1 (AMUNIX OPERATING, published 2013).

The target of one test is T1, human CD40-Fc fusion (human, UniProt P25942 21-193).
T1 construct: Coated at 100 ng/well; not shown: Fc part of the fusion
Kind of test: ELISA, dilution series of cleared lysate on coated human CD40-Fc; Kd from EC50 and an estimated 10 µM in the lysate.

A further test addresses T2, human IL6R (human, UniProt P08887 20-358, limits assumed).
T2 construct: also called IL-6 receptor
T2 sequence (looked up): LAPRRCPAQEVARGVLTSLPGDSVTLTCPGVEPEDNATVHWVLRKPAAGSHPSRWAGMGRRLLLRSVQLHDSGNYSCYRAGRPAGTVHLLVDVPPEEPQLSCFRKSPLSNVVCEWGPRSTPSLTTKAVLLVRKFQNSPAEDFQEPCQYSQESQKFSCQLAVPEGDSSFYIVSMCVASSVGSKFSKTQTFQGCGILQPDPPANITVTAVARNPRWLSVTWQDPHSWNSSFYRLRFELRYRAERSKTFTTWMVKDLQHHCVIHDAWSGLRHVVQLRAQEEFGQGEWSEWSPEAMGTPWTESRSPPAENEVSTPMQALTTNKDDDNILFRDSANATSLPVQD
Put plainly: ELISA, coated human IL6R, biotinylated anti-XTEN antibody and streptavidin-HRP.

T1 sequence (P25942 21-193 limits assumed): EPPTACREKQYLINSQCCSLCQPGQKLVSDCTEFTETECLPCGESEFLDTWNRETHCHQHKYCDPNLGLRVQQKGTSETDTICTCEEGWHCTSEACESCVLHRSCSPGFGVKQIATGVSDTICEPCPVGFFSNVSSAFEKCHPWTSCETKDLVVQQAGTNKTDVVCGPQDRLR
Description for human CD40-Fc fusion: This second flask was grown to an OD600 of between 0.6 and 1.0 at 37° C., transferred to 26° C., and induced with 1 mM IPTG. The induction was left overnight and cell paste harvested by centrifugation the flowing morning. […] Small samples were taken from the pellet, lysed using bugbuster, and clarified using a microcentrifuge. These cleared lysates were the serially diluted by a factor of three in PBST, for using in a binding ELISA.

B1: anti-CD40-AE864, AC384 (scFv)
scFv: MAEIVLTQSPATLSLSPGERATLSCRASQSISDYLHWYQQKPGQAPRLLIYYASHSISGIPARFSGSGSGTDFTLTISSLEPEDFAVYYCQHGHSYPWTFGGGTKVEIKTGSGEGSEGEGGGEGSEGEGSGEGGEGEGSGTQVQLVQSGSELKKPGASVKVSCKASGYAFTTTGMQWVRQAPGQGLEWMGWINTHSGVPKYVEDFKGRFVFSLDTSVSTAYLQISSLKAEDTAVYYCARSGNGNYDLAYFKYWGQGTLVTVSSGGSPAGSPTSTEEGTSESATPESGPGTSTEPSEGSAPGSPAGSPTSTEEGTSTEPSEGSAPGTSTEPSEGSAPGTSESATPESGPGSEPATSGSETPGSEPATSGSETPGSPAGSPTSTEEGTSESATPESGPGTSTEPSEGSAPGTSTEPSEGSAPGSPAGSPTSTEEGTSTEPSEGSAPGTSTEPSEGSAPGTSESATPESGPGTSTEPSEGSAPGTSESATPESGPGSEPATSGSETPGTSTEPSEGSAPGTSTEPSEGSAPGTSESATPESGPGTSESATPESGPGSPAGSPTSTEEGTSESATPESGPGSEPATSGSETPGTSESATPESGPGTSTEPSEGSAPGTSTEPSEGSAPGTSTEPSEGSAPGTSTEPSEGSAPGTSTEPSEGSAPGTSTEPSEGSAPGSPAGSPTSTEEGTSTEPSEGSAPGTSESATPESGPGSEPATSGSETPGTSESATPESGPGSEPATSGSETPGTSESATPESGPGTSTEPSEGSAPGTSESATPESGPGSPAGSPTSTEEGSPAGSPTSTEEGSPAGSPTSTEEGTSESATPESGPGTSTEPSEGSAPGTSESATPESGPGSEPATSGSETPGTSESATPESGPGSEPATSGSETPGTSESATPESGPGTSTEPSEGSAPGSPAGSPTSTEEGTSESATPESGPGSEPATSGSETPGTSESATPESGPGSPAGSPTSTEEGSPAGSPTSTEEGTSTEPSEGSAPGTSESATPESGPGTSESATPESGPGTSESATPESGPGSEPATSGSETPGSEPATSGSETPGSPAGSPTSTEEGTSTEPSEGSAPGTSTEPSEGSAPGSEPATSGSETPGTSESATPESGPGTSTEPSEGSAP
notes: Tested as cleared E. coli lysate, not purified; also called aCD40-XTEN; pBC0009
Consider B1, for which the dissociation constant Kd with human CD40-Fc fusion is around 50 nM.

B2: anti-CD40-AE864, AC385 (scFv)
scFv: B1 scFv
notes: Tested as cleared E. coli lysate, not purified; also called aCD40-XTEN; pBC0010
In the case of B2, the Kd in the test with human CD40-Fc fusion was around 50 nM.

B3: aIL6R scFv-AE864, AC342 (scFv)
scFv: MADIQMTQSPSSLSASVGDRVTITCRASQDISSYLNWYQQKPGKAPKLLIYYTSRLHSGVPSRFSGSGSGTDFTFTISSLQPEDIATYYCQQGNTLPYTFGQGTKVEIKTGSGEGSEGEGGGEGSEGEGSGEGGEGEGSGSQVQLQESGPGLVRPSQTLSLTCTVSGYSITSDHAWSWVRQPPGRGLEWIGYISYSGITTYNPSLKSRVTMLRDTSKNQFSLRLSSVTAADTAVYYCARSLARTTAMDYWGQGSLVTVSSGSPGSPAGSPTSTEEGTSESATPESGPGTSTEPSEGSAPGSPAGSPTSTEEGTSTEPSEGSAPGTSTEPSEGSAPGTSESATPESGPGSEPATSGSETPGSEPATSGSETPGSPAGSPTSTEEGTSESATPESGPGTSTEPSEGSAPGTSTEPSEGSAPGSPAGSPTSTEEGTSTEPSEGSAPGTSTEPSEGSAPGTSESATPESGPGTSTEPSEGSAPGTSESATPESGPGSEPATSGSETPGTSTEPSEGSAPGTSTEPSEGSAPGTSESATPESGPGTSESATPESGPGSPAGSPTSTEEGTSESATPESGPGSEPATSGSETPGTSESATPESGPGTSTEPSEGSAPGTSTEPSEGSAPGTSTEPSEGSAPGTSTEPSEGSAPGTSTEPSEGSAPGTSTEPSEGSAPGSPAGSPTSTEEGTSTEPSEGSAPGTSESATPESGPGSEPATSGSETPGTSESATPESGPGSEPATSGSETPGTSESATPESGPGTSTEPSEGSAPGTSESATPESGPGSPAGSPTSTEEGSPAGSPTSTEEGSPAGSPTSTEEGTSESATPESGPGTSTEPSEGSAPGTSESATPESGPGSEPATSGSETPGTSESATPESGPGSEPATSGSETPGTSESATPESGPGTSTEPSEGSAPGSPAGSPTSTEEGTSESATPESGPGSEPATSGSETPGTSESATPESGPGSPAGSPTSTEEGSPAGSPTSTEEGTSTEPSEGSAPGTSESATPESGPGTSESATPESGPGTSESATPESGPGSEPATSGSETPGSEPATSGSETPGSPAGSPTSTEEGTSTEPSEGSAPGTSTEPSEGSAPGSEPATSGSETPGTSESATPESGPGTSTEPSEGSAPG
notes: Single-chain scFv-XTEN fusion expressed in E. coli; also called aIL6R-XTEN
Consider B3, for which, in the test with human IL6R, the response was half-maximal at 5 nM (EC50).
